Reference: patent US20240261333A1 (published 2024)

Columns and labels:
GANAB = biological target: T1, GANAB (human, UniProt Q14697 29-944); assay: co-IP with anti-FLAG, mass spectrometry; lysate of cells with N-FLAG B3GNT2
T1 construct: also called NP_938148.1 (+1)
T1 sequence (looked up): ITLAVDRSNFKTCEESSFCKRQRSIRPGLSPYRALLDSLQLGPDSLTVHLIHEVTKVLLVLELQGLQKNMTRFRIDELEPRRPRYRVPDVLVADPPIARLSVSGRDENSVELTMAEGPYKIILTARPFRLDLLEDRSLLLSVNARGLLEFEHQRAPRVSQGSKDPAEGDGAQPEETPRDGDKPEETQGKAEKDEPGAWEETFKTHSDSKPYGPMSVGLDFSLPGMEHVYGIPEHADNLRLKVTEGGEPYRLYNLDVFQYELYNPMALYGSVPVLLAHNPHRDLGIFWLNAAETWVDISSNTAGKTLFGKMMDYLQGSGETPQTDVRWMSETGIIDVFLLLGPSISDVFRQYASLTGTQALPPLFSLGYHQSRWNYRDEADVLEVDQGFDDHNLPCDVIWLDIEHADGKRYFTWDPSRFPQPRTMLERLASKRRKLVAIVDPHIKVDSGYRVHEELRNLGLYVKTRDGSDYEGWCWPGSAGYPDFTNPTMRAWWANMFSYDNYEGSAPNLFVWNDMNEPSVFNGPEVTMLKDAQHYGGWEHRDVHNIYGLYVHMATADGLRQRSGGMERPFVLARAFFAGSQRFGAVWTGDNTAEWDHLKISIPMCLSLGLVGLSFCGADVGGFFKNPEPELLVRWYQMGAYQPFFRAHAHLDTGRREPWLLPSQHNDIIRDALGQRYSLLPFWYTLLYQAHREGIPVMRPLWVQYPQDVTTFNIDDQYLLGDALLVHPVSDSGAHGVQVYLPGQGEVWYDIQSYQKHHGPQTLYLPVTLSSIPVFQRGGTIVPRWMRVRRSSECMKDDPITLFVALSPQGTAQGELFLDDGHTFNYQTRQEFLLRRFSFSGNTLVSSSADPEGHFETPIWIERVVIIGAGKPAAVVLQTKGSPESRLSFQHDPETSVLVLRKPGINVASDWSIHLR

RRP12 = biological target: T2, RRP12 (human, UniProt Q5JTH9-3 1-1236, limits assumed); assay: as above
T2 construct: also called NP_001138586.1 (+4)
T2 sequence (looked up): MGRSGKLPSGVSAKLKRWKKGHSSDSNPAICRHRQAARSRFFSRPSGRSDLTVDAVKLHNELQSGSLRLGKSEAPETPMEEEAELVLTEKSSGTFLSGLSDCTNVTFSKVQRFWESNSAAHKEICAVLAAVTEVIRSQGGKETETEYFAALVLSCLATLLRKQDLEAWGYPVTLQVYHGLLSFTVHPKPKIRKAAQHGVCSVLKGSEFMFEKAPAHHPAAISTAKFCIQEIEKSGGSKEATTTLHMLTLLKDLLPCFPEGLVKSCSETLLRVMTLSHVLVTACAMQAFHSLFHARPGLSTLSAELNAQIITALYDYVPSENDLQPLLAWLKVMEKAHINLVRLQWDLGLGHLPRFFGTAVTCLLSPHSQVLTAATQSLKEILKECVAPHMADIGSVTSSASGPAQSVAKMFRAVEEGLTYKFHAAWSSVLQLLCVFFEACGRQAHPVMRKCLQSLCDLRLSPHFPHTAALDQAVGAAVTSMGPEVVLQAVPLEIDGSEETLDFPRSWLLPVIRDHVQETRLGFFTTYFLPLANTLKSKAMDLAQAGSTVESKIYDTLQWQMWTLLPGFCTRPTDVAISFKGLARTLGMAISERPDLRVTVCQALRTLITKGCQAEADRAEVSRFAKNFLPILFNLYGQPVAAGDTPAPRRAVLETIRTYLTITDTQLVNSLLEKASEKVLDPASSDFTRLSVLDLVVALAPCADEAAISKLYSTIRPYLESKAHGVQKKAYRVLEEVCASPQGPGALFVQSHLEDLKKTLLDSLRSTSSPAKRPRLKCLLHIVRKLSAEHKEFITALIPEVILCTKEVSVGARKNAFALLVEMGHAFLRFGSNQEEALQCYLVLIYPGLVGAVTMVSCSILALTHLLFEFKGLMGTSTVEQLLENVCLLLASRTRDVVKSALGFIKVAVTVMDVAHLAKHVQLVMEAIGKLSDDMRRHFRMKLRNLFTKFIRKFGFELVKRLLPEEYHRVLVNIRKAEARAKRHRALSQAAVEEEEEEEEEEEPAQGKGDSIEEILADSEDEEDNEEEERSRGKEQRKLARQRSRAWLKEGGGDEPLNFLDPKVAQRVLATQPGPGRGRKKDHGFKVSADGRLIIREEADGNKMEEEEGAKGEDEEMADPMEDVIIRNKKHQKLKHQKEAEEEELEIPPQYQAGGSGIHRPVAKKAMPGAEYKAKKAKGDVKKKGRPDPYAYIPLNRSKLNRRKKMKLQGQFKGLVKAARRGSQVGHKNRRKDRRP

co-IP mass spectrometry count (GANAB): 0
co-IP mass spectrometry count (RRP12): 0
B1: N-terminal FLAG tagged B3GNT2 (enzyme, human, UniProt Q9NY97 1-397, looked up)
chain: MSVGRRRIKLLGILMMANVFIYFIMEVSKSSSQEKNGKGEVIIPKEKFWKISTPPEAYWNREQEKLNRQYNPILSMLTNQTGEAGRLSNISHLNYCEPDLRVTSVVTGFNNLPDRFKDFLLYLRCRNYSLLIDQPDKCAKKPFLLLAIKSLTPHFARRQAIRESWGQESNAGNQTVVRVFLLGQTPPEDNHPDLSDMLKFESEKHQDILMWNYRDTFFNLSLKEVLFLRWVSTSCPDTEFVFKGDDDVFVNTHHILNYLNSLSKTKAKDLFIGDVIHNAGPHRDKKLKYYIPEVVYSGLYPPYAGGGGFLYSGHLALRLYHITDQVHLYPIDDVYTGMCLQKLGLVPEKHKGFRTFDIEEKNKNNICSYVDLMLVHSRKPQEMIDIWSQLQSAHLKC
notes: Bait of the co-IP; pulled down with mouse anti-FLAG (Millipore Sigma F3165) from cell lysate; also called N-FLAG B3GNT2; N-term FLAG; not shown: N-terminal FLAG tag
